Paper PMC5847613 (Scientific Reports, 2018)

Columns and labels:
Details in all cases: both partners purified
[1] = biological target: T1, recombinant HA of pH1N1 A/California/04/2009 (Influenza A virus A/California/04/2009 …, UniProt C3W5S1, strain); assay: SPR
T1 construct: source: bought: Protein Sciences Corp., Meriden, CT

[2] = biological target: recombinant influenza A H1 HA (A/Brisbane/59/07) (Influenza A virus A/Brisbane/59/2007 …, UniProt D5F1Q8, strain); assay: ELISA
[3] = biological target: recombinant influenza B HA (B/Brisbane/60/08) (Influenza B virus B/Brisbane/60/2008, UniProt C0LT35, strain); assay: ELISA
[4] = biological target: recombinant HA of A/USSR/1977 H1N1 (Influenza A virus A/USSR/90/1977 …, UniProt P03453, strain); assay: mPLEX-Flu multiplex fluorescent-bead assay (Luminex)
[5] = biological target: recombinant HA of A/South Carolina/01/1918 H1N1 (Influenza A virus A/South …, UniProt Q9WFX3, strain); assay: as above

B1: KPF1 human monoclonal antibody (antibody, V domains shown)
VH: EVQLLESGGGLVQPGGSLRISCAASGSTFGDFAMSWVRQSPGRGLEWVSVTSAGGDRTYYADSVKGRFTISRDNSKNTLYLQMNSLRGEDTAMYYCARLDSSGFHYGRPGRNWGQGTLVTVSS
VL: DIQMTHSPPSLSASVGDRITITCQASQDISYYLIWYQQKPGKAPKPLIYDASNLEAGVPSRFSASGSGTDFTLTISSLQPEDLATYYCQQYKSLPYTFGQGTKLEIK
notes: also called KPF1 hmAb; hmAb KPF1
With B1 the Kd [1] was 0.178 nM, the binding result [2] was “binds” and the binding result [3] was “no binding”. B1: no binding (tested: 1 μg/ml) [4]; binds [5].
